# Measurements reported in article PMC6078952.
# Molecular target: Anastellin
# Test: BLI; Octet RED96, anastellin (100 µg/ml) covalently coupled to AR2G biosensors via amine groups, sensors dipped into LOX-PP solutions for 3 min in HBS-P20; 1:1 model
binder,measurement,value
"recombinant human propeptide of lysyl oxidase (LOX-PP) (domain or fragment, N-linked oligosaccharides (removed by PNGase F, about 13 kDa; three glycosylated asparagine residues: N81, N97, N144)) APLAAGQQQPPREPPAAPGAWRQQIQWENNGQVFSLLSLGSQYQPQRRRDPGAAVPGAANASAQQPRTPILLIRDNRTAAARTRTAGSSGVTAGRPRPTARHWFQAGYSTSRAREAGASRAENQTAPGEVPALSNLRPPSRVDGMVG",Kd,152 nM
same,koff,0.000445 s⁻¹
same,kon,2930 M⁻¹ s⁻¹
